Data: the supplement of paper PMC9112550, “Optimization of the antimicrobial peptide Bac7 by deep mutational scanning” (BMC Biology, 2022)

System: Escherichia coli TOP10
Assay: shrunken log2 fold change of peptide-encoding DNA abundance (4.5 h post-induction vs induction); higher = less antimicrobial activity (less host growth inhibition)
Details: time post-induction: 4.5 h; library: site-saturation at positions 5, 18, 19, 20
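Note: peptides expressed intracellularly from a pBAD plasmid library in pooled LB shake-flask culture, induced with 0.3% L-arabinose, DNA abundance read by NGS, three biological replicates, DESeq2 with apeglm shrinkage.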

Sequence | shrunken log2 fold change
RRIRNRPPRLPRPRPRPYVCPRP | -0.363
RRIRMRPPRLPRPRPRPLPMPRP | 0.429
RRIRSRPPRLPRPRPRPLLRPRP | -0.107
RRIRYRPPRLPRPRPRPYCPPRP | -0.848
RRIRHRPPRLPRPRPRPTCWPRP | -0.0322
RRIRLRPPRLPRPRPRPSYHPRP | -0.686
RRIRNRPPRLPRPRPRPIWTPRP | -0.115
RRIRHRPPRLPRPRPRPVLSPRP | -0.386
RRIRLRPPRLPRPRPRPNWEPRP | -0.111
RRIRKRPPRLPRPRPRPITKPRP | -0.0212
RRIRHRPPRLPRPRPRPSWDPRP | -0.205
RRIRSRPPRLPRPRPRPVQRPRP | 0.363
RRIRQRPPRLPRPRPRPEYMPRP | -0.0613
RRIRWRPPRLPRPRPRPIEKPRP | -0.221
RRIRHRPPRLPRPRPRPTRRPRP | 0.271
RRIRWRPPRLPRPRPRPSVTPRP | 0.145
RRIRRRPPRLPRPRPRPMSNPRP | -0.0453
RRIRPRPPRLPRPRPRPYCFPRP | -0.655
RRIRDRPPRLPRPRPRPNSAPRP | -1.36
RRIRLRPPRLPRPRPRPDLSPRP | -0.112
RRIRLRPPRLPRPRPRPRWWPRP | 0.13
RRIRYRPPRLPRPRPRPEILPRP | -0.288
RRIRRRPPRLPRPRPRPPFSPRP | 0.207
RRIRERPPRLPRPRPRPQLMPRP | -0.0865
RRIRKRPPRLPRPRPRPDNHPRP | -0.715

Sequence | shrunken log2 fold change
RRIRNRPPRLPRPRPRPTCIPRP | -0.0808
RRIRQRPPRLPRPRPRPQYGPRP | -0.0763
RRIRRRPPRLPRPRPRPVKNPRP | 0.148
RRIRQRPPRLPRPRPRPRPTPRP | 0.554
RRIRHRPPRLPRPRPRPGCDPRP | 0.123
RRIRERPPRLPRPRPRPAINPRP | -0.257
RRIRNRPPRLPRPRPRPSSAPRP | -0.0956
RRIRFRPPRLPRPRPRPKGKPRP | 0.195
RRIRDRPPRLPRPRPRPAFKPRP | 0.0611
RRIRMRPPRLPRPRPRPIAIPRP | 0.226
RRIRPRPPRLPRPRPRPMFFPRP | -0.207
RRIRSRPPRLPRPRPRPRVNPRP | -0.189
RRIRARPPRLPRPRPRPAEMPRP | -0.0298
RRIRKRPPRLPRPRPRPTWKPRP | 0.107
RRIRTRPPRLPRPRPRPIYCPRP | -0.233
RRIRPRPPRLPRPRPRPHHVPRP | 0.0547
RRIRNRPPRLPRPRPRPDWDPRP | -0.108
RRIRWRPPRLPRPRPRPFQTPRP | -0.00783
RRIRTRPPRLPRPRPRPTICPRP | -0.401
RRIRDRPPRLPRPRPRPGTEPRP | 0.974
RRIRCRPPRLPRPRPRPVKWPRP | -0.24
RRIRQRPPRLPRPRPRPKPRPRP | 0.309
RRIRRRPPRLPRPRPRPAQKPRP | 0.547
RRIRQRPPRLPRPRPRPVGVPRP | 0.475
RRIRDRPPRLPRPRPRPFESPRP | -0.00133

Sequence | shrunken log2 fold change
RRIRVRPPRLPRPRPRPFKAPRP | -0.316
RRIRHRPPRLPRPRPRPDSSPRP | 0.00209
RRIRARPPRLPRPRPRPMVQPRP | -0.081
RRIRERPPRLPRPRPRPQGRPRP | -0.0137
RRIRSRPPRLPRPRPRPKRVPRP | 0.0219
RRIRERPPRLPRPRPRPLQDPRP | -0.133
RRIRQRPPRLPRPRPRPFNKPRP | -0.0963
RRIRIRPPRLPRPRPRPIQIPRP | -0.0257
RRIRPRPPRLPRPRPRPCGNPRP | -0.0502
RRIRCRPPRLPRPRPRPAQCPRP | -0.113
RRIRERPPRLPRPRPRPQEGPRP | 0.0271
RRIRCRPPRLPRPRPRPCANPRP | 0.00335
RRIRLRPPRLPRPRPRPTTTPRP | 0.00266
RRIRFRPPRLPRPRPRPSNNPRP | -0.702
RRIRNRPPRLPRPRPRPWRVPRP | 0.515
RRIRERPPRLPRPRPRPYVDPRP | -0.0122
RRIRERPPRLPRPRPRPAFAPRP | 0.206
RRIRKRPPRLPRPRPRPKRCPRP | 0.309
RRIRYRPPRLPRPRPRPGFAPRP | -0.00507
RRIRTRPPRLPRPRPRPMCCPRP | -0.182
RRIRLRPPRLPRPRPRPESYPRP | -0.266
RRIRARPPRLPRPRPRPFCHPRP | -0.083
RRIRQRPPRLPRPRPRPNWYPRP | -0.0479
RRIRNRPPRLPRPRPRPSVYPRP | -0.172
RRIRERPPRLPRPRPRPIKIPRP | -0.681

Sequence | shrunken log2 fold change
RRIRLRPPRLPRPRPRPMYVPRP | -0.199
RRIRCRPPRLPRPRPRPKYLPRP | -0.34
RRIRARPPRLPRPRPRPDNEPRP | 0.301
RRIRWRPPRLPRPRPRPNWDPRP | -0.0442
RRIRRRPPRLPRPRPRPKGKPRP | 0.195
RRIRYRPPRLPRPRPRPVTMPRP | -0.688
RRIRKRPPRLPRPRPRPMTRPRP | 0.872
RRIRMRPPRLPRPRPRPEVVPRP | 2.97
RRIRVRPPRLPRPRPRPCWTPRP | -0.665
RRIRVRPPRLPRPRPRPARTPRP | 0.147
RRIRQRPPRLPRPRPRPLDEPRP | 0.0698
RRIRLRPPRLPRPRPRPPEFPRP | 0.0526
RRIRYRPPRLPRPRPRPRPQPRP | 0.438
RRIRPRPPRLPRPRPRPLTHPRP | -0.108
RRIRDRPPRLPRPRPRPWALPRP | -0.000578
RRIRRRPPRLPRPRPRPRDCPRP | 0.177
RRIRHRPPRLPRPRPRPTVYPRP | -0.219
RRIRDRPPRLPRPRPRPSRCPRP | 0.346
RRIRDRPPRLPRPRPRPCGRPRP | 0.147
RRIRQRPPRLPRPRPRPHDKPRP | -0.773
RRIRYRPPRLPRPRPRPSPTPRP | -0.167
RRIRDRPPRLPRPRPRPLQHPRP | 0.0148
RRIRLRPPRLPRPRPRPYHKPRP | -0.304
RRIRMRPPRLPRPRPRPYFHPRP | -0.614
RRIRDRPPRLPRPRPRPIREPRP | -0.00227

Sequence | shrunken log2 fold change
RRIRLRPPRLPRPRPRPHSMPRP | -0.506
RRIRCRPPRLPRPRPRPPEGPRP | 0.926
RRIRARPPRLPRPRPRPRKPPRP | 0.114
RRIRKRPPRLPRPRPRPGAIPRP | 0.238
RRIRMRPPRLPRPRPRPYHMPRP | -0.000687
RRIRKRPPRLPRPRPRPVVVPRP | 0.212
RRIRNRPPRLPRPRPRPWLVPRP | -0.151
RRIRARPPRLPRPRPRPNISPRP | 0.0983
RRIRARPPRLPRPRPRPDCQPRP | 0.55
RRIRRRPPRLPRPRPRPPNHPRP | 0.234
RRIRIRPPRLPRPRPRPQCCPRP | -0.0258
RRIRMRPPRLPRPRPRPFLFPRP | 0.0343
RRIRGRPPRLPRPRPRPWVHPRP | -0.0245
RRIRGRPPRLPRPRPRPLKAPRP | 0.0177
RRIRYRPPRLPRPRPRPNAQPRP | -0.0122
RRIRHRPPRLPRPRPRPWVVPRP | -0.48
RRIRARPPRLPRPRPRPETKPRP | 1.27
RRIRDRPPRLPRPRPRPKQWPRP | 0.109
RRIRSRPPRLPRPRPRPLYFPRP | -0.682
RRIRYRPPRLPRPRPRPKSCPRP | -0.0262
RRIRGRPPRLPRPRPRPEQLPRP | 0.443
RRIRQRPPRLPRPRPRPFAWPRP | -0.0355
RRIRLRPPRLPRPRPRPFPVPRP | 0.11
RRIRGRPPRLPRPRPRPMVMPRP | 0.342
RRIRQRPPRLPRPRPRPRSVPRP | 0.235
